Reference: patent US20230340090A1
Changes are numbered by the printed parent chain.

T1: TP-24 peptide (human)
T1 sequence (peptide, biotinylated): REFFSQYGDVMDVFI

T2: TP-25 peptide (human)
T2 sequence (peptide, biotinylated): VMDVFIPKPFRAFAF

B1: ACI-7062-404D6-Ab2 (antibody, IgG3, V domains shown)
VH: QVTLKESGPGILQPSQTLSLTCSFSGFSLSTYGIGVGWIRQPSGKGLEWLAHIWWNDYKYYNTALKSRLTISKDTSNNRVFLKIASVDTADTATYYCARVYGNLYYFDYWGQGTTLTVSS
VL: DVLMTQTPLSLPVSLGDQASISCRSSQSIVHGSGNTYLEWYLQKPGQSPKLLIYKVSNRFSGVPDRFSGSGSGTDFTLRISRVEAEDLGVYYCFQGSHVPTFGAGTKLELKR
B2: ACI-7062-416A11-Ab1 (antibody, IgG2a, V domains shown)
VH: B1 VH with P14S, Y58N, R79Q, T92A, D108G
VL: B1 VL with Q18R, G32S, R79K, H98R
B3: ACI-7062-415C4-Ab1 (antibody, IgG1, V domains shown)
VH: B1 VH with Y58N, N62K, R79Q, T92S, D108G
VL: B1 VL with G32S, S33T, R79K, H98R
B4: ACI-7062-410H3-Ab1 (antibody, IgG1, V domains shown)
VH: DVQLVESGGGLVQPGGSRRLSCAASGFTFSSFGMHWVRQAPEKGLEWVAYIRSGSDIIYYADSVKGRFTISRDNPENTLFLQMTSLRSEDTAMYYCARSGTTVPFDYWGQGTSLTVSS
VL: DIVMTQSPSSLAMSVGQKVTMSCKSSQSLLNSGNQKNYLAWYQQKPGQSPELLLYFASTRASGVPDRFIGSGSGTDFTLTISSVQAEDLADYFCQQHYSIPLTFGAGTKLELKR
B5: ACI-7062-412A7-Ab1 (antibody, IgG2b, V domains shown)
VH: B4 VH
VL: B4 VL
B6: ACI-7062-401A2-Ab2 (antibody, IgG1, V domains shown)
VH: B4 VH with S31R
VL: B4 VL with N34D, T78S
B7: ACI-7062-412E12-Ab1 (antibody, IgG1, V domains shown)
VH: B4 VH with S31R
VL: B4 VL with N34D, T78S

These binders were tested against T1, TP-24 peptide (human) (assay: indirect ELISA, biotinylated 15-mer on streptavidin plate).

Compared with B1, B2 is lower in OD (O.D. (405 nm)): 4 for the first, 2.9 for the second.

B3 and B4 are the same in OD (O.D. (405 nm)): 3.8 for the first, 3.8 for the second.

First: B5
Second: B6
The OD (O.D. (405 nm)) of the first is higher: 4 for the first, 2.5 for the second.

Binder B7 has an OD (O.D. (405 nm)) of 3.2.

What follows are binders tested against T2, TP-25 peptide (human) in the same assay as above.

B1 and B2 are the same in OD (O.D. (405 nm)): 0.9 for the first, 0.9 for the second.

Going from B3 to B4, the OD (O.D. (405 nm)) falls from 1.2 to 0.8.

First: B5
Second: B6
The OD (O.D. (405 nm)) of the first is higher: 1.4 for the first, 1 for the second.

B7 was tested, and the OD (O.D. (405 nm)) was 1.2.
